Experimental data taken from the RNAGym collection of RNA variant scans (doi:10.1021/acssynbio.7b00057).

B1: Pistol ribozyme (parent)
chain: GGGUCGUUGUUCCAUAAUCGCGUGGAUAUGGCACGCAAGUUUCUACCGGGCACCGUAAAUGUCCGACUGGAGCCGUUCGGGCGGCUAUAAACAGACCUCAGGCCCGAAGCGUGGCGGCACCUGCCGCCGGUGGUAAAAAAGAUCGGAAGAGCACACGUCU

Variants of: B1
Assay: aptazyme ON/OFF ratio, guanine; higher = stronger switching; co-transcriptional cleavage with and without guanine

Row | Variant | aptazyme ON/OFF ratio
1 | U7G G9A U10G U11C C12A C13G | 1.06
2 | U7G G9A U10G U11C C12A C13U | 1.1
3 | U7G G9A U10G U11C C12A C13A | 1.09
4 | U7G G9A U11C C13A | 1.11
5 | U7G G9A U11C C13G | 1.09
6 | U7G G9A U11C C13U | 1.14
7 | U7G G9A U11G C12A C13G | 1.07
8 | U7G G9A U11G C12A C13U | 1.07
9 | U7G G9A U11G C12A C13A | 1.06
10 | U7G G9A U10C U11G C13G | 1.17
11 | U7G G9A U10C U11G C13A | 1.09
12 | U7G G9A U10C U11G C13U | 1.14
13 | U7G G9C C12A C13U | 1.34
14 | U7G G9C C12A C13G | 1.33
15 | U7G G9C C12A C13A | 1.42
16 | U7G G9A U10C U11C C12G C13A | 1.1
17 | U7G G9A U10C U11C C12G C13G | 1.05
18 | U7G G9A U10C U11C C12G C13U | 1.03
19 | U7G G9A U11G C12A | 1.17
20 | U7G G9A U11G C12G | 1.17
21 | U7G G9A U11G C12U | 1.3
22 | U7G G9C U10G U11C C12A C13G | 1.23
23 | U7G G9C U10G U11C C12A C13A | 1.19
24 | U7G G9C U10G U11C C12A C13U | 1.33

Row | Variant | aptazyme ON/OFF ratio
25 | U7G G9C U10C U11C C13A | 1.05
26 | U7G G9C U10C U11C C13U | 1.03
27 | U7G G9C U10C U11C C13G | 1.04
28 | U7G G9C U10C U11G C12U C13U | 1.34
29 | U7G G9C U10C U11G C12U C13G | 1.26
30 | U7G G9C U10C U11G C12U C13A | 1.33
31 | U7G G9C U10A U11C C12A C13U | 1.36
32 | U7G G9C U10A U11C C12A C13A | 1.34
33 | U7G G9C U10A U11C C12A C13G | 1.23
34 | U7G G9A U10G U11C C12U C13U | 1.09
35 | U7G G9A U10G U11C C12U C13A | 1.08
36 | U7G G9A U10G U11C C12U C13G | 1.08
37 | U7G G9A U11A C13A | 1.14
38 | U7G G9A U11A C13G | 1.1
39 | U7G G9A U11A C13U | 1.2
40 | U7G G9C U10G U11C C13U | 1.15
41 | U7G G9C U10G U11C C13G | 1.16
42 | U7G G9C U10G U11C C13A | 1.24
43 | U7G G9C U10C C12A C13A | 1.16
44 | U7G G9C U10C C12A C13U | 1.36
45 | U7G G9C U10C C12A C13G | 1.16
46 | U7G G9A U10G C12A C13U | 1.08
47 | U7G G9A U10G C12A C13A | 1.08
48 | U7G G9A U10G C12A C13G | 1.15

Row | Variant | aptazyme ON/OFF ratio
49 | U7G G9C U10G U11A | 1.37
50 | U7G G9C U10G U11G | 2.48
51 | U7G G9C U10G U11C | 1.17
52 | U7G G9C U10A C12A C13G | 1.09
53 | U7G G9C U10A C12A C13A | 1.2
54 | U7G G9C U10A C12A C13U | 1.2
55 | U7G G9C U10A U11A C12U C13U | 1.29
56 | U7G G9C U10A U11A C12U C13A | 1.29
57 | U7G G9C U10A U11A C12U C13G | 1.25
58 | U7G G9A U11A C12A C13G | 1.09
59 | U7G G9A U11A C12A C13U | 1.15
60 | U7G G9A U11A C12A C13A | 1.18
61 | U7G G9A U10G C12U C13G | 1.11
62 | U7G G9A U10G C12U C13A | 1.11
63 | U7G G9A U10G C12U C13U | 1.1
64 | U7G G9A U10G U11A C12U C13U | 1.07
65 | U7G G9A U10G U11A C12U C13G | 1.05
66 | U7G G9A U10G U11A C12U C13A | 1.1
67 | U7G G9C U10G C12U | 1.38
68 | U7G G9C U10G C12A | 1.65
69 | U7G G9C U10G C12G | 1.51
70 | U7G G9C U10G C12G C13G | 1.18
71 | U7G G9C U10G C12G C13U | 1.31
72 | U7G G9C U10G C12G C13A | 1.28

Row | Variant | aptazyme ON/OFF ratio
73 | U7G G9C U10G U11A C12G | 1.28
74 | U7G G9C U10G U11A C12A | 1.18
75 | U7G G9C U10G U11A C12U | 1.19
76 | U7G G9A U10G C12G | 1.09
77 | U7G G9A U10G C12A | 1.09
78 | U7G G9A U10G C12U | 1.14
79 | U7G G9A U10G U11A C12A C13U | 1.09
80 | U7G G9A U10G U11A C12A C13A | 1.06
81 | U7G G9A U10G U11A C12A C13G | 1.05
82 | U7G G9C U10A U11G C12A C13A | 1.07
83 | U7G G9C U10A U11G C12A C13U | 1.14
84 | U7G G9C U10A U11G C12A C13G | 1.11
85 | U7G G9A U10C U11G C12U C13A | 1.11
86 | U7G G9A U10C U11G C12U C13G | 1.11
87 | U7G G9A U10C U11G C12U C13U | 1.14
88 | U7G G9A U10G U11G C12G C13U | 1.16
89 | U7G G9A U10G U11G C12G C13G | 1.16
90 | U7G G9A U10G U11G C12G C13A | 1.11
91 | U7G G9C U10C C12U | 1.7
92 | U7G G9C U10C C12G | 1.29
93 | U7G G9C U10C C12A | 1.5
94 | U7G G9A U10G U11G C12U C13G | 1.12
95 | U7G G9A U10G U11G C12U C13U | 1.1
96 | U7G G9A U10G U11G C12U C13A | 1.09

Row | Variant | aptazyme ON/OFF ratio
97 | U7G G9A U10G U11C C13G | 1.11
98 | U7G G9A U10G U11C C13A | 1.08
99 | U7G G9A U10G U11C C13U | 1.08
100 | U7G G9A U10C U11G C12G C13G | 1.06
101 | U7G G9A U10C U11G C12G C13A | 1.09
102 | U7G G9A U10C U11G C12G C13U | 1.06
103 | U7G G9C U10G C13G | 1.23
104 | U7G G9C U10G C13A | 1.41
105 | U7G G9C U10G C13U | 1.36
106 | U7G G9A U11G C13G | 1.1
107 | U7G G9A U11G C13A | 1.11
108 | U7G G9A U11G C13U | 1.16
109 | U7G G9A U10G C12G C13U | 1.07
110 | U7G G9A U10G C12G C13G | 1.12
111 | U7G G9A U10G C12G C13A | 1.1
112 | U7G G9C U10A C12U | 1.18
113 | U7G G9C U10A C12G | 1.4
114 | U7G G9C U10A C12A | 1.43
115 | U7G G9C U10A U11A C13A | 1.31
116 | U7G G9C U10A U11A C13U | 1.45
117 | U7G G9C U10A U11A C13G | 1.11
118 | U7G G9C U10A C13G | 1.07
119 | U7G G9C U10A C13U | 1.16
120 | U7G G9C U10A C13A | 1.2

Row | Variant | aptazyme ON/OFF ratio
121 | U7G G9C U10A U11A C12G C13A | 1.14
122 | U7G G9C U10A U11A C12G C13G | 1.15
123 | U7G G9C U10A U11A C12G C13U | 1.27
124 | U7G G9C U10A U11G C12G C13G | 1.08
125 | U7G G9C U10A U11G C12G C13A | 1.1
126 | U7G G9C U10A U11G C12G C13U | 1.12
127 | U7G G9A U11C C12G | 1.27
128 | U7G G9A U11C C12A | 1.34
129 | U7G G9A U11C C12U | 1.39
130 | U7G G9A U11C C12G C13G | 1.07
131 | U7G G9A U11C C12G C13A | 1.11
132 | U7G G9A U11C C12G C13U | 1.13
133 | U7G G9A U10C U11G C12A C13U | 1.11
134 | U7G G9A U10C U11G C12A C13G | 1.1
135 | U7G G9A U10C U11G C12A C13A | 1.07
136 | U7G G9C U10G | 1.89
137 | U7G G9C U10A | 3.1
138 | U7G G9C U10C | 2.77
139 | U7G G9C U10A U11A C12A C13A | 1.36
140 | U7G G9C U10A U11A C12A C13G | 1.15
141 | U7G G9C U10A U11A C12A C13U | 1.29
142 | U7G G9A U11C C12U C13G | 1.19
143 | U7G G9A U11C C12U C13A | 1.15
144 | U7G G9A U11C C12U C13U | 1.3

Row | Variant | aptazyme ON/OFF ratio
145 | U7G G9C C12G | 1.91
146 | U7G G9C C12U | 1.79
147 | U7G G9C C12A | 1.99
148 | U7G G9C C13A | 1.29
149 | U7G G9C C13U | 1.45
150 | U7G G9C C13G | 1.14
151 | U7G G9A U11A | 2.46
152 | U7G G9A U11C | 1.17
153 | U7G G9A U11G | 1.64
154 | U7G G9C U10A U11G C12G | 1.41
155 | U7G G9C U10A U11G C12A | 1.15
156 | U7G G9C U10A U11G C12U | 1.43
157 | U7G G9C U10A C12G C13G | 1.1
158 | U7G G9C U10A C12G C13A | 1.1
159 | U7G G9C U10A C12G C13U | 1.28
160 | U7G G9C U10G U11G C12A | 1.05
161 | U7G G9C U10C U11A C12U C13A | 1.18
162 | U7G G9C U10C U11A C12U C13U | 1.32
163 | U7G G9C U10C U11A C12U C13G | 1.21
164 | U7G G9C U10G U11G C12A C13A | 1.1
165 | U7G G9A U10C U11G | 1.68
166 | U7G G9C U10G C12A C13G | 1.11
167 | U7G G9C U10G C12A C13U | 1.25
